Reference: patent US20060257904, “Agglomeration protein cascades, compositions and methods regarding the same” (Q-RNA, Inc., published 2006)

B1: MNV:AP1 (PrP-Amp) (ssRNA)
RNA: GGGUUCAUAGCCUAUUCGGCUUCGCGCAUGGGAAUUUGAGGGACGAUGGGGAAGUGGGAGCGCGUUUUAAAGGACCUUUUUCCCUCGCGUAGCUAGCUACGCGAGGUGACCCCCCGAAGGGGGGUGCCCC
B2: RQ11+12 (ssRNA)
RNA: GGGGUUUCCAACCGGAAUUUGAGGGAUGCCUAGGCAUCCCCCGUGCGUCCCUUUACGAGGGAUUGUCGACUCUAGUCGACGUCUGGGCGAAAAAUGUACGAGAGGACCUUUUCGGUACAGACGGUACCUGAGGGUAUGCCUAGGCAUCCCCCGCGCCGGUUUCGGACCUCCAGUGCGUGUUACCGCACUGUCGACCC

Experiments:
[1] = molecular target: T1, hrPrP23-231 (pEHPrP23-231) (Homo sapiens, UniProt P04156 P04156:23-231); assay: EMSA; 55 nM hrPrP, 10% BCS plus tRNA, urea gel; conditions: tags: untagged; E. coli BL21(DE3) pLysS; label: 32P internal
Tau441 (2N4R) = Tau441 (2N4R) (UniProt P10636-8 P10636-8:1-441); assay: EMSA; 125 ng RNA, 1 ug Tau; affinity differs from Tau23; conditions: tags: no His tag; rPeptide; label: 32P internal
[2] = molecular target: T1, hrPrP23-231 (pEHPrP23-231); assay: EMSA; conditions: tags: untagged; E. coli BL21(DE3) pLysS; label: 32P internal
[3] = molecular target: hrPrP23-144 (N-terminal fragment) (Homo sapiens, UniProt P04156 P04156:23-144); assay: filter; 20 nM protein, Buffer B plus tRNA; conditions: tags: GST fusion removed by thrombin; label: 32P internal
lysozyme = lysozyme (UniProt P00698 P00698:19-147); assay: filter; background; 20 nM protein, 2 nM RNA, 10 ng/ul tRNA; conditions: label: 32P internal
BSA = BSA (UniProt P02769 P02769:25-607); assay: as above; conditions: tags: Ambion; label: 32P internal
[4] = molecular target: hrPrP90-231 (C-terminal fragment) (Homo sapiens, UniProt P04156 P04156:90-231); assay: filter; conditions: tags: GST fusion removed by thrombin; label: 32P internal
Tau23 (0N3R) = Tau23 (0N3R) (UniProt P10636-2 P10636-2:1-352); assay: EMSA; 125 ng RNA, 1 ug Tau, protection buffer pH 7.4; conditions: tags: 6-His; label: 32P internal

Row | Binder | binding result [1] | binding result (Tau441 (2N4R)) | binding result [2] | binding result [3] | binding result (lysozyme) | binding result (BSA) | binding result [4] | binding result (Tau23 (0N3R))
1 | B1 | binds | – | – | – | – | – | – | –
2 | B2 | – | binds | binds | binds | no binding | no binding | no binding | binds
